Measurements published in patent US20240400715A1 (VIBRANT PHARMA, published 2024).
Substitutions are numbered along the chain they refer to.

B1: 101 (Fab-Knob+CEA-Hole) (bispecific antibody, human IgG4 S228P, kappa, F234A L235A)
heavy: EVKLLESGGGLVQPKGSLKLSCAASGFTFNTYAMNWVRQAPGKGLEWVARIRSKYNNYATYYADSVKDRFTISRDDSQSILYLQMNNLKTEDTAMYYCVRHGNFGNSYVSWFAYWGQGTLVTVSSASTKGPSVFPLAPCSRSTSESTAALGCLVKDYFPEPVTVSWNSGALTSGVHTFPAVLQSSGLYSLSSVVTVPSSSLGTKTYTCNVDHKPSNTKVDKRVESKYGPPCPPCPAPEAAGGPSVFLFPPKPKDTLMISRTPEVTCVVVDVSQEDPEVQFNWYVDGVEVHNAKTKPREEQFNSTYRVVSVLTVLHQDWLNGKEYKCKVSNKGLPSSIEKTISKAKGQPREPQVYTLPPCQEEMTKNQVSLWCLVKGFYPSDIAVEWESNGQPENNYKTTPPVLDSDGSFFLYSRLTVDKSRWQEGNVFSCSVMHEALHNHYTQKSLSLSL
chain: EVQLVESGGGFVQAGESLTLSCTSSTLTFTPYRMAWYRQAPGKQRDLVADISSGDGRTTNYADFAKGRFTISRDNIKNTVFLRMTNLKPEDTAVYYCNTFVSFVGIARSWGQGTQVTVSSESKYGPPCPPCPAPEAAGGPSVFLFPPKPKDTLMISRTPEVTCVVVDVSQEDPEVQFNWYVDGVEVHNAKTKPREEQFNSTYRVVSVLTVLHQDWLNGKEYKCKVSNKGLPSSIEKTISKAKGQPREPQVCTLPPSQEEMTKNQVSLSCAVKGFYPSDIAVEWESNGQPENNYKTTPPVLDSDGSFFLVSRLTVDKSRWQEGNVFSCSVMHEALHNRFTQKSLSLSL
light: QAVVTQESALTTSPGETVTLTCRSSTGAVTTSNYANWVQEKPDHLFTGLIGGTNKRAPGVPARFSGSLIGDKAALTITGAQTEDEAIYFCALWYSNLWVFGGGTKVEIKRTVAAPSVFIFPPSDEQLKSGTASVVCLLNNFYPREAKVQWKVDNALQSGNSQESVTEQDSKDSTYSLSSTLTLSKADYEKHKVYACEVTHQGLSSPVTKSFNRGEC
notes: TA1 anti-CD3 Fab, C17 anti-CEA VHH, human IgG4 Fc knob-into-hole
B2: 102 (Fab-Knob-CEA+Hole) (bispecific antibody, human IgG4 S228P, kappa, F234A L235A)
heavy: EVKLLESGGGLVQPKGSLKLSCAASGFTFNTYAMNWVRQAPGKGLEWVARIRSKYNNYATYYADSVKDRFTISRDDSQSILYLQMNNLKTEDTAMYYCVRHGNFGNSYVSWFAYWGQGTLVTVSSASTKGPSVFPLAPCSRSTSESTAALGCLVKDYFPEPVTVSWNSGALTSGVHTFPAVLQSSGLYSLSSVVTVPSSSLGTKTYTCNVDHKPSNTKVDKRVESKYGPPCPPCPAPEAAGGPSVFLFPPKPKDTLMISRTPEVTCVVVDVSQEDPEVQFNWYVDGVEVHNAKTKPREEQFNSTYRVVSVLTVLHQDWLNGKEYKCKVSNKGLPSSIEKTISKAKGQPREPQVYTLPPCQEEMTKNQVSLWCLVKGFYPSDIAVEWESNGQPENNYKTTPPVLDSDGSFFLYSRLTVDKSRWQEGNVFSCSVMHEALHNHYTQKSLSLSLGGGGSGGGGSEVQLVESGGGFVQAGESLTLSCTSSTLTFTPYRMAWYRQAPGKQRDLVADISSGDGRTTNYADFAKGRFTISRDNIKNTVFLRMTNLKPEDTAVYYCNTFVSFVGIARSWGQGTQVTVSS
chain: ESKYGPPCPPCPAPEAAGGPSVFLFPPKPKDTLMISRTPEVTCVVVDVSQEDPEVQFNWYVDGVEVHNAKTKPREEQFNSTYRVVSVLTVLHQDWLNGKEYKCKVSNKGLPSSIEKTISKAKGQPREPQVCTLPPSQEEMTKNQVSLSCAVKGFYPSDIAVEWESNGQPENNYKTTPPVLDSDGSFFLVSRLTVDKSRWQEGNVFSCSVMHEALHNRFTQKSLSLSL
light: B1 light
notes: TA1 Fab, C17 VHH, IgG4 Fc KIH
B3: 103 (Fab-Knob+Hole-CEA) (bispecific antibody, human IgG4 S228P, kappa, F234A L235A)
heavy: B1 heavy
chain: ESKYGPPCPPCPAPEAAGGPSVFLFPPKPKDTLMISRTPEVTCVVVDVSQEDPEVQFNWYVDGVEVHNAKTKPREEQFNSTYRVVSVLTVLHQDWLNGKEYKCKVSNKGLPSSIEKTISKAKGQPREPQVCTLPPSQEEMTKNQVSLSCAVKGFYPSDIAVEWESNGQPENNYKTTPPVLDSDGSFFLVSRLTVDKSRWQEGNVFSCSVMHEALHNRFTQKSLSLSLGGGGSGGGGSEVQLVESGGGFVQAGESLTLSCTSSTLTFTPYRMAWYRQAPGKQRDLVADISSGDGRTTNYADFAKGRFTISRDNIKNTVFLRMTNLKPEDTAVYYCNTFVSFVGIARSWGQGTQVTVSS
light: B1 light
notes: TA1 Fab, C17 VHH, IgG4 Fc KIH
B4: 104 (CEA-Knob+Fab-Hole) (bispecific antibody, human IgG4 S228P, kappa, F234A L235A)
chain: B1 chain with C251Y, S256C, S268W, A270L, V309Y, R337H, F338Y
heavy: B1 heavy with Y354C, C359S, W371S, L373A, Y412V, H440R, Y441F
light: B1 light
notes: TA1 Fab, C17 VHH, IgG4 Fc KIH
B5: 105 (Knob-CEA+Fab-Hole) (bispecific antibody, human IgG4 S228P, kappa, F234A L235A)
chain: B3 chain with C131Y, S136C, S148W, A150L, V189Y, R217H, F218Y
heavy: B1 heavy with Y354C, C359S, W371S, L373A, Y412V, H440R, Y441F
light: B1 light
notes: TA1 Fab, C17 VHH, IgG4 Fc KIH
B6: 106 (Knob+Fab-Hole-CEA) (bispecific antibody, human IgG4 S228P, kappa, F234A L235A)
chain: B2 chain with C131Y, S136C, S148W, A150L, V189Y, R217H, F218Y
heavy: B2 heavy with Y354C, C359S, W371S, L373A, Y412V, H440R, Y441F
light: B1 light
notes: TA1 Fab, C17 VHH, IgG4 Fc KIH

molecular target: T1, human CD3ε/δ (ACRO systems, CDD-H52W1) (human, UniProt P07766 23-126; P04234 22-105); assay: serum-stability ELISA, Day 9 vs Day 0
T1 construct: bought recombinant heterodimer; also called human CD3 epsilon/delta; Human CD3ε/CD3δ
Procedure: (§1) The samples to be tested were centrifuged at 4° C. at 12000 rpm for 30 minutes to remove the precipitate. 200 μl of each sample to be tested (0.5 mg/ml) was collected in a 1.5 ml Eppendorf tube. An equal volume of human serum (GEMINI, H2OYOOK) was added, mixed thoroughly, and the mixture was incubated in a 37° C. constant temperature CO₂ incubator. For a total of 10 days, 40 μl samples was aspirated every day and stored at −20° C.
(§2) Enzyme-linked immunosorbent assay (ELISA) was used to test the bispecific antibodies' binding to human CEA and human CD3 epsilon/delta antigen. The steps are as follows: the antigen human CD3ε/δ (ACRO systems, CDD-H52W1) and the recombinant tumor antigen human CEA (CEACAM-5/CD66e, ACRO systems, CE5-H5226) were diluted to 1 μg/ml with PBS, and then added to the 96-well plate at 100 μl per well. The wells were coated overnight at 4° C. After washing 3 times with 0.05% PBST, 200 μl 5% skimmed milk powder was added to each well and incubated at 37° C. for 2 h. After washing 3 times with 0.05% PBST, 100 μl primary antibody sample (10 μg/ml) was added to each well, and incubated at 37° C. for 2 h. After washing 3 times with 0.05% PBST, 100 μl (1:6000) diluted secondary antibody goat anti-human Fc-HRP (sigma, A2170) was added to each well, incubated at room temperature for 1 h. After washing 8 times with 0.05% PBST, 50 μl TMB color developing solution was added to each well, and incubated at room temperature for 10-15 min. 50 μl 1 mM HCl was added to each well to stop the color development. 450 nm Absorbance (OD) was read.
(§3) The binding of antibodies to antigen was calculated according to the following formula: Binding (%)=[(ODdayn−ODb)/(ODday0−ODb)]×100%. ODdayn: experimental well (the protein was stored in the serum for n days); ODday0: control well (the protein was not stored in the serum); ODb: blank well (no primary antibody added).

Q: For B1, which Binding % is on record?
A: Its Binding % is 102%.

Q: For B2, which Binding % is on record?
A: Its Binding % is 100%.

Q: How did the Binding % turn out when B3 was run?
A: Its Binding % is 103%.

Q: Which Binding % does the source give for B4 here?
A: The Binding % was 108%.

Q: With B5 as the binder, how does the Binding % read?
A: The Binding % was 105%.

Q: For B6, which Binding % is on record?
A: The Binding % was 112%.

molecular target: T1, human CD3ε/δ (ACRO systems, CDD-H52W1); assay: serum-stability ELISA, Day 1 vs Day 0
Procedure: as §1, §2, §3

Q: For B1, which Binding % is on record?
A: Its Binding % is 98.5%.

Q: For B2, which Binding % is on record?
A: Its Binding % is 106%.

Q: For B3, which Binding % is on record?
A: Its Binding % is 101%.

Q: With B4 as the binder, how does the Binding % read?
A: Its Binding % is 107%.

Q: How did the Binding % turn out when B5 was run?
A: Its Binding % is 103%.

Q: Which Binding % does the source give for B6 here?
A: Its Binding % is 111%.

molecular target: T1, human CD3ε/δ (ACRO systems, CDD-H52W1); assay: serum-stability ELISA, Day 5 vs Day 0
Procedure: as §1, §2, §3

Q: For B1, which Binding % is on record?
A: The Binding % was 99.2%.

Q: How did the Binding % turn out when B2 was run?
A: The Binding % was 108%.

Q: How did the Binding % turn out when B3 was run?
A: The Binding % was 105%.

Q: Which Binding % does the source give for B4 here?
A: The Binding % was 104%.

Q: Which Binding % does the source give for B5 here?
A: Its Binding % is 107%.

Q: How did the Binding % turn out when B6 was run?
A: The Binding % was 116%.

molecular target: T1, human CD3ε/δ (ACRO systems, CDD-H52W1); assay: serum-stability ELISA, Day 10 vs Day 0
Procedure: as §1, §2, §3

Q: How did the Binding % turn out when B1 was run?
A: Its Binding % is 101%.

Q: How did the Binding % turn out when B2 was run?
A: The Binding % was 102%.

Q: With B3 as the binder, how does the Binding % read?
A: Its Binding % is 100%.

Q: B4 was tested. Which Binding % did it give?
A: Its Binding % is 107%.

Q: Which Binding % does the source give for B5 here?
A: Its Binding % is 99.2%.

Q: With B6 as the binder, how does the Binding % read?
A: Its Binding % is 106%.

molecular target: T1, human CD3ε/δ (ACRO systems, CDD-H52W1); assay: serum-stability ELISA, Day 6 vs Day 0
Procedure: as §1, §2, §3

Q: Which Binding % does the source give for B1 here?
A: Its Binding % is 103%.

Q: How did the Binding % turn out when B2 was run?
A: Its Binding % is 110%.

Q: How did the Binding % turn out when B3 was run?
A: The Binding % was 105%.

Q: B4 was tested. Which Binding % did it give?
A: The Binding % was 104%.

Q: With B5 as the binder, how does the Binding % read?
A: The Binding % was 104%.

Q: B6 was tested. Which Binding % did it give?
A: Its Binding % is 122%.

molecular target: T1, human CD3ε/δ (ACRO systems, CDD-H52W1); assay: serum-stability ELISA, Day 0 (reference)
Procedure: as §1, §2, §3

Q: With B1 as the binder, how does the Binding % read?
A: The Binding % was 100%.

Q: For B2, which Binding % is on record?
A: The Binding % was 100%.

Q: B3 was tested. Which Binding % did it give?
A: Its Binding % is 100%.

Q: With B4 as the binder, how does the Binding % read?
A: The Binding % was 100%.

Q: Which Binding % does the source give for B5 here?
A: Its Binding % is 100%.

Q: With B6 as the binder, how does the Binding % read?
A: Its Binding % is 100%.

molecular target: T1, human CD3ε/δ (ACRO systems, CDD-H52W1); assay: serum-stability ELISA, Day 7 vs Day 0
Procedure: as §1, §2, §3

Q: B1 was tested. Which Binding % did it give?
A: The Binding % was 100%.

Q: Which Binding % does the source give for B2 here?
A: The Binding % was 105%.

Q: Which Binding % does the source give for B3 here?
A: The Binding % was 107%.

Q: How did the Binding % turn out when B4 was run?
A: Its Binding % is 103%.

Q: B5 was tested. Which Binding % did it give?
A: Its Binding % is 101%.

Q: Which Binding % does the source give for B6 here?
A: The Binding % was 118%.

molecular target: T1, human CD3ε/δ (ACRO systems, CDD-H52W1); assay: serum-stability ELISA, Day 2 vs Day 0
Procedure: as §1, §2, §3

Q: B1 was tested. Which Binding % did it give?
A: The Binding % was 101%.

Q: Which Binding % does the source give for B2 here?
A: Its Binding % is 111%.

Q: How did the Binding % turn out when B3 was run?
A: Its Binding % is 106%.

Q: How did the Binding % turn out when B4 was run?
A: Its Binding % is 110%.

Q: How did the Binding % turn out when B5 was run?
A: Its Binding % is 106%.

Q: With B6 as the binder, how does the Binding % read?
A: The Binding % was 115%.
